According to the Human Domainome abundance scans (Beltran et al. 2025):
± gives the uncertainty stated by the source.

B1: DnaJ homolog subfamily C member 5, residues 16 to 77; numbered along this chain, Q9H3Z4 (parent)
chain: LYHVLGLDKNATSDDIKKSYRKLALKYHPDKNPDNPEAADKFKEINNAHAILTDATKRNIYD

Variants of: B1
Assay: abundance fitness (aPCA) (normalised: wild type 0, dead -1); higher = more abundant; growth selection in yeast, the domain comes from the species named
Conditions: Homo sapiens

Row | Variant | abundance fitness
1 | LYHVLGLDKNATSDDIKKSYRKLALKYHRDKNPDNPEAADKFKEINNAHAILTDATKRNIYD [P29R] | -0.422 ± 0.055
2 | LYHVLGLDKNATSDDIKKSYRKLALKYHVDKNPDNPEAADKFKEINNAHAILTDATKRNIYD [P29V] | -0.414 ± 0.062
3 | LYHVLGLDKNATSDDIKKSYRKLALKYHNDKNPDNPEAADKFKEINNAHAILTDATKRNIYD [P29N] | -0.278 ± 0.067
4 | LYHVLGLDKNATSDDIKKSYRKLALKYHYDKNPDNPEAADKFKEINNAHAILTDATKRNIYD [P29Y] | -0.413 ± 0.097
5 | LYHVLGLDKNATSDDIKKSYRKLALKYHWDKNPDNPEAADKFKEINNAHAILTDATKRNIYD [P29W] | -0.66 ± 0.077
6 | LYHVLGLDKNATSDDIKKSYRKLALKYHQDKNPDNPEAADKFKEINNAHAILTDATKRNIYD [P29Q] | -0.377 ± 0.072
7 | LYHVLGLDKNATSDDIKKSYRKLALKYHTDKNPDNPEAADKFKEINNAHAILTDATKRNIYD [P29T] | -0.292 ± 0.069
8 | LYHVLGLDKNATSDDIKKSYRKLALKYHSDKNPDNPEAADKFKEINNAHAILTDATKRNIYD [P29S] | -0.159 ± 0.065
9 | LYHVLGLDKNATSDDIKKSYRKLALKYHPDKKPDNPEAADKFKEINNAHAILTDATKRNIYD [N32K] | -0.353 ± 0.11
10 | LYHVLGLDKNATSDDIKKSYRKLALKYHPDKGPDNPEAADKFKEINNAHAILTDATKRNIYD [N32G] | -0.434 ± 0.11
11 | LYHVLGLDKNATSDDIKKSYRKLALKYHPDKFPDNPEAADKFKEINNAHAILTDATKRNIYD [N32F] | -0.24 ± 0.095
12 | LYHVLGLDKNATSDDIKKSYRKLALKYHPDKMPDNPEAADKFKEINNAHAILTDATKRNIYD [N32M] | -0.157 ± 0.094
13 | LYHVLGLDKNATSDDIKKSYRKLALKYHPDKLPDNPEAADKFKEINNAHAILTDATKRNIYD [N32L] | -0.684 ± 0.073
14 | LYHVLGLDKNATSDDIKKSYRKLALKYHPDKWPDNPEAADKFKEINNAHAILTDATKRNIYD [N32W] | -0.179 ± 0.081
15 | LYHVLGLDKNATSDDIKKSYRKLALKYHPDKAPDNPEAADKFKEINNAHAILTDATKRNIYD [N32A] | -0.349 ± 0.19
16 | LYHVLGLDKNATSDDIKKSYRKLALKYHPDKRPDNPEAADKFKEINNAHAILTDATKRNIYD [N32R] | -0.431 ± 0.076
17 | LYHVLGLDKNATSDDIKKSYRKLALKYHPDKDPDNPEAADKFKEINNAHAILTDATKRNIYD [N32D] | -0.282 ± 0.15
18 | LYHVLGLDKNATSDDIKKSYRKLALKYHPDKPPDNPEAADKFKEINNAHAILTDATKRNIYD [N32P] | -0.691 ± 0.19
19 | LYHVLGLDKNATSDDIKKSYRKLALKYHPDKSPDNPEAADKFKEINNAHAILTDATKRNIYD [N32S] | -0.3 ± 0.081
20 | LYHVLGLDKNATSDDIKKSYRKLALKYHPDKTPDNPEAADKFKEINNAHAILTDATKRNIYD [N32T] | -0.251 ± 0.086
21 | LYHVLGLDKNATSDDIKKSYRKLALKYHPDKVPDNPEAADKFKEINNAHAILTDATKRNIYD [N32V] | -0.396 ± 0.078
22 | LYHVLGLDKNATSDDIKKSYRKLALKYHPDKHPDNPEAADKFKEINNAHAILTDATKRNIYD [N32H] | -0.009 ± 0.1

Row | Variant | abundance fitness
23 | LYHVLGLDKNATSDDIKKSYRKLALKYHPDKYPDNPEAADKFKEINNAHAILTDATKRNIYD [N32Y] | -0.67 ± 0.14
24 | LYHVLGLDKNATSDDIKKSYRKLALKYHPPKNPDNPEAADKFKEINNAHAILTDATKRNIYD [D30P] | -0.384 ± 0.1
25 | LYHVLGLDKNATSDDIKKSYRKLALKYHPGKNPDNPEAADKFKEINNAHAILTDATKRNIYD [D30G] | -0.171 ± 0.062
26 | LYHVLGLDKNATSDDIKKSYRKLALKYHPAKNPDNPEAADKFKEINNAHAILTDATKRNIYD [D30A] | 0.14 ± 0.09
27 | LYHVLGLDKNATSDDIKKSYRKLALKYHPTKNPDNPEAADKFKEINNAHAILTDATKRNIYD [D30T] | 0.067 ± 0.14
28 | LYHVLGLDKNATSDDIKKSYRKLALKYHPCKNPDNPEAADKFKEINNAHAILTDATKRNIYD [D30C] | -0.221 ± 0.13
29 | LYHVLGLDKNATSDDIKKSYRKLALKYHPEKNPDNPEAADKFKEINNAHAILTDATKRNIYD [D30E] | 0.01 ± 0.084
30 | LYHVLGLDKNATSDDIKKSYRKLALKYHPFKNPDNPEAADKFKEINNAHAILTDATKRNIYD [D30F] | -0.828 ± 0.28
31 | LYHVLGLDKNATSDDIKKSYRKLALKYHPNKNPDNPEAADKFKEINNAHAILTDATKRNIYD [D30N] | -0.018 ± 0.098
32 | LYHVLGLDKNATSDDIKKSYRKLALKYHPSKNPDNPEAADKFKEINNAHAILTDATKRNIYD [D30S] | 0.099 ± 0.069
33 | LYHVLGLDKNATSDDIKKSYRKLALKYHPMKNPDNPEAADKFKEINNAHAILTDATKRNIYD [D30M] | -0.089 ± 0.17
34 | LYHVLGLDKNATSDDIKKSYRKLALKYHPKKNPDNPEAADKFKEINNAHAILTDATKRNIYD [D30K] | 0.084 ± 0.099
35 | LYHVLGLDKNATSDDIKKSYRKLALKYHPWKNPDNPEAADKFKEINNAHAILTDATKRNIYD [D30W] | -0.749 ± 0.087
36 | LYHVLGLDKNATSDDIKKSYRKLALKYHPVKNPDNPEAADKFKEINNAHAILTDATKRNIYD [D30V] | -0.207 ± 0.075
37 | LYHVLGLDKNATSDDIKKSYRKLALKYHPYKNPDNPEAADKFKEINNAHAILTDATKRNIYD [D30Y] | -0.288 ± 0.15
38 | LYHVLGLDKNATSDDIKKSYRKLALKYHPRKNPDNPEAADKFKEINNAHAILTDATKRNIYD [D30R] | -0.207 ± 0.06
39 | LYHVLGLDKNATSDDIKKSYRKLALKYHPDSNPDNPEAADKFKEINNAHAILTDATKRNIYD [K31S] | -0.51 ± 0.089
40 | LYHVLGLDKNATSDDIKKSYRKLALKYHPDYNPDNPEAADKFKEINNAHAILTDATKRNIYD [K31Y] | -0.207 ± 0.15
41 | LYHVLGLDKNATSDDIKKSYRKLALKYHPDQNPDNPEAADKFKEINNAHAILTDATKRNIYD [K31Q] | -0.06 ± 0.12
42 | LYHVLGLDKNATSDDIKKSYRKLALKYHPDLNPDNPEAADKFKEINNAHAILTDATKRNIYD [K31L] | -0.433 ± 0.083
43 | LYHVLGLDKNATSDDIKKSYRKLALKYHPDCNPDNPEAADKFKEINNAHAILTDATKRNIYD [K31C] | -0.64 ± 0.13
